Target: the molecule itself
Test: SDS-PAGE with western blot

B1: His-tagged ectromelia virus strain Moscow gene 141 profilin homolog (ECTV-PH) (natural protein)
chain: MAAEWHKIIEDVSKNNKFEDAAIVDYKTKKNVLAAIPNRTFAKIIPGEVIALITNRNILKPRIGQKFFIVYTNSLMDENTYTMELLTGYAPVSPIVIARTHTALIFLMGKPTTSRREVYRTCRDYATNVRATGN
notes: also called ECTV-Moscow 141; His-ECTV-PH; not shown: His6, N-terminal, kept
B1 was tested, and the “stoichiometry N” value was 2.

From publication PMC1964790, “An ectromelia virus profilin homolog interacts with cellular tropomyosin and viral A-type inclusion protein” (Virology Journal, 2007)
